Assay results reported in patent publication US20040204561A1, “Peptide aggregates” (priority 2002, published 2004).
Primed or numbered codes have the meaning given here. Ends that are not written are not given here. bbDTPA = DTPA chelating ligand bonded through a carbon of its ethylene backbone; bbDTPA″ = DTPA chelating ligand bound through a backbone ethylene carbon

What was measured:
[1] = Aggregation / gel formation behaviour in aqueous solution; format: physicochemical
Protocol: EP1272L (0.0842 g) was suspended in 2 mL water. To this were added 160 μL 1N NaOH, bringing the pH of the solution to 7.5. The volume was taken to 5 mL with addition of water and the solution gently swirled until all solids were dissolved. The chelatables were monitored by titration using xylenol orange as an indicator for free gadolinium. Following titration, 86.4 μL of 241 mM stock solution of GdCl3 was added to the solution with stirring followed by 60 μL 1N NaOH. Low mass impurities were removed from the solution by centrifugation over a 0.02 μm anapore membrane (Vecta-Spin). This was followed by resuspension in 20 mL of water and filtration over a 5 μm (Durapore, low protein binding) syringe filter frit. At concentrations greater than 0.5 mM, EP1272L became a non-flowing viscous gel.
As described in Examples 1-8, a self-assembling peptide having the sequence AEAEAKAKAEAEAKAK (SEQ ID NO: 1) was chemically modified to include a metal binding moiety (an organic chelating ligand) via a glycine linker to the N-terminus of the peptide; see EP1272L in FIG. 3. Modified self-assembling peptides having the same metal binding moiety at the N-terminus and further including acidic moieties at the C-terminus of the peptide were also made (see EP 1593L and EP1594L in FIG. 3).

[2] = Relaxivity measurements in PBS (T1, inversion recovery); format: physicochemical
Description: First, solutions of EP 1272L (FW=2,243 Da) were concentrated and purified by centrifugation in a filter device with a nominal molecular weight limit of 300,000 Da. The formation of high molecular weight aggregates allowed EP1272L to be retained by the filter device. […] Third, SEC-LS column retention and light scattering measurements of EP1272L were consistent with a large species having a mass distribution of 4×10^6 to 13×10^6 Da, and a hydrodynamic radius in the range of 155 nm to 210 nm.
Relaxivity measurements were made in PBS. A relaxivity titration consisting of sequential additions of EP1272L (complexed to Gd(III)) to a tube containing approximately 0.6 mL of PBS was performed. Following each addition of EP1272, the sample was thoroughly mixed by manual agitation and the temperature allowed to equilibrate for 10 minutes at 37±2° C. prior to T1 determination. The longitudinal (T1) relaxation time was determined by use of the inversion recovery pulse sequence and fitting the intensity data to an exponential decay. Measurements at 20 MHz were made using a Bruker Minispec PC 120/125/Vts nuclear magnetic resonance process analyzer. The temperature was regulated with a Haake D8-GH circulating bath at 37±2° C. Measurements at 64.5 MHz were made using a Varian XL300 adjusted to a field strength of 1.5 T with a broad band variable temperature probe tuned to 64.5 MHz. The relaxivity of EP1272 at 0.5 T and 1.5 T were 24.9 mM^−1s^−1 and 21.0 mM^−1s^−1 respectively. The relaxivity of EP1593 at 0.5 T was assessed in a similar manner and was 19.9 mM^−1s^−1. The relaxivity of EP1594 was assessed in a similar manner at 0.5 T and was 22.0 mM^−1s^−1.

[3] = biological target: streptavidin magnetic beads (Streptomyces avidinii, UniProt P22629); assay: Avidin affinity assay: capture by streptavidin magnetic beads, quantified by gadolinium ICP; format: binding; details: capture by streptavidin-coated beads, FIG. 8
streptavidin magnetic beads, sequence (P22629 25-183): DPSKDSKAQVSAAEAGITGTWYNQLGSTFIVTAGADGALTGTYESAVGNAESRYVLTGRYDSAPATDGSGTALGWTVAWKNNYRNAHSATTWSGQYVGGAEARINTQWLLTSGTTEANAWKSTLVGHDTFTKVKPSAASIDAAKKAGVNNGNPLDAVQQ
Protocol: Two self-assembling peptides comprising target binding moieties were prepared (FIG. 7). EP1595 contained a C-terminal biotin target binding moiety; EP 1596 contained a C-terminal aromatic target binding moiety (phenylundecane).
EP1272L aggregates were targeted to avidin by incorporation of a biotinylated peptide (e.g., an assembling peptide containing a target binding moiety (EP1595)) into the aggregates. To 70 μL of a 1.54 mM stock solution of EP1272L was added varying amounts of EP1595. The pH was then reduced to 1.5 by addition of 1N HCl to induce mixing of the peptides. The solution was neutralized by addition of 1N NaOH and the volume brought to 500 μL with addition of water. Aggregates containing 20% biotinylated peptide (5:1 ratio of EP1272 to EP1595), 4% biotinylated-peptide (25:1 ratio), and 0.5% biotinylated peptide (200:1) were prepared.
EP1272L aggregates containing the phenylundecane substituted peptide, EP1596, in a 10:1 ratio were prepared as described above.
The three EP1595/EP1272 formulations, one EP1596/EP1272 formulation, and an EP1272 formulation were assayed for affinity to streptavidin magnetic beads. Each sample was diluted so as to maintain a constant ratio of biotinylated peptide and streptavidin binding sites in the assay. Solutions without biotin were treated as though they contained 0.5% EP1595. […] The extent of capture was quantified by gadolinium ICP.

For “AEAEAKAKAEAEAKAK (Targeted aggregate peptide) [reference compound]”, the “aggregation behaviour (macroscopic membrane formation)” value (“aggregation behaviour” below) [1] was “tended to form macroscopic membranes”.
For “EP1272: EP1272L complexed to Gd(III) (GAEAEAKAKAEAEAKAK)”, the relaxivity ([2]; 0.5 T (20 MHz), 37±2° C.) was 24.9 mM⁻¹ s⁻¹ and the relaxivity ([2]; 1.5 T (64.5 MHz), 37±2° C.) was 21.0 mM⁻¹ s⁻¹.
For “EP1272L: self-assembling peptide AEAEAKAKAEAEAKAK (SEQ ID NO: 1) with bbDTPA chelating ligand via a glycine linker at the N-terminus (bbDTPA-GAEAEAKAKAEAEAKAK)”, the relaxivity ([2]; 0.47 T) was 25 mM⁻¹ s⁻¹, the relaxivity ([2]; 1.5 T (64.5 MHz), 37±2° C.) was 21 mM⁻¹ s⁻¹ and the “affinity for streptavidin beads” value [3] was “substantially less affinity for streptavidin beads”. The “aggregation behaviour” value [1] was “tended to aggregate, but did not form macroscopic membranes” and the “concentration above which a non-flowing viscous gel forms” value ([1]; aqueous solution after complexing with Gd(III)) was “greater than 0.5 mM”.
Substance “EP1593: EP1593L complexed to Gd(III) (GAEAEAKAKAEAEAKAK)” has a relaxivity ([2]; 0.5 T (20 MHz), 37±2° C.) of 19.9 mM⁻¹ s⁻¹.
With “EP1593L: self-assembling peptide having a covalently attached metal binding moiety (bbDTPA) and an acidic group at the C-terminus ({bbDTPA″}-GAEAEAKAKAEAEAKAK; also: acidic group at C-terminus, not given here)” the “aggregation behaviour” value [1] was “tended to aggregate, but did not form macroscopic membranes”.
With “EP1594: EP1594L complexed to Gd(III) (GAEAEAKAKAEAEAKAK)” the relaxivity ([2]; 0.5 T (20 MHz), 37±2° C.) was 22.0 mM⁻¹ s⁻¹.
In the case of “EP1594L: self-assembling peptide having a covalently attached metal binding moiety (bbDTPA) and an acidic group at the C-terminus ({bbDTPA″}-GAEAEAKAKAEAEAKAK; also: acidic group at C-terminus, not given here)”, the “aggregation behaviour” value [1] is reported as “tended to aggregate, but did not form macroscopic membranes”.
